Molecular target: the molecule itself
Test: negative-stain electron microscopy

B1: AtPORB Y177F_H319A double mutant (enzyme, A. thaliana)
chain: QTAATSSPTVTKSVDGKKTLRKGNVVVTGASSGLGLATAKALAETGKWNVIMACRDFLKAERAAKSVGMPKDSYTVMHLDLASLDSVRQFVDNFRRTETPLDVLVCNAAVFFPTAKEPTYSAEGFELSVATNHLGHFLLARLLLDDLKKSDYPSKRLIIVGSITGNTNTLAGNVPPKANLGDLRGLAGGLNGLNSSAMIDGGDFDGAKAYKDSKVCNMLTMQEFHRRFHEETGVTFASLYPGCIASTGLFREAIPLFRALFPPFQKYITKGYVSETESGKRLAQVVSDPSLTKSGVYWSWNNASASFENQLSEEASDVEKARKVWEISEKLVGLA
binding result: binds

Reference: publication PMC11110527 (Chemical Science, 2024)
